# Experimental data: IntAct's records for PubMed 21525957
# B1: Protein phosphatase Slingshot homolog 1 (Homo sapiens), Q8WYL5 (parent)
# chain: MALVTLQRSPTPSAASSSASNSELEAGSEEDRKLNLSLSESFFMVKGAALFLQQGSSPQGQRSLQHPHKHAGDLPQHLQVMINLLRCEDRIKLAVRLESAWADRVRYMVVVYSSGRQDTEENILLGVDFSSKESKSCTIGMVLRLWSDTKIHLDGDGGFSVSTAGRMHIFKPVSVQAMWSALQVLHKACEVARRHNYFPGGVALIWATYYESCISSEQSCINEWNAMQDLESTRPDSPALFVDKPTEGERTERLIKAKLRSIMMSQDLENVTSKEIRNELEKQMNCNLKELKEFIDNEMLLILGQMDKPSLIFDHLYLGSEWNASNLEELQGSGVDYILNVTREIDNFFPGLFAYHNIRVYDEETTDLLAHWNEAYHFINKAKRNHSKCLVHCKMGVSRSASTVIAYAMKEFGWPLEKAYNYVKQKRSITRPNAGFMRQLSEYEGILDASKQRHNKLWRQQTDSSLQQPVDDPAGPGDFLPETPDGTPESQLPFLDDAAQPGLGPPLPCCFRRLSDPLLPSPEDETGSLVHLEDPEREALLEEAAPPAEVHRPARQPQQGSGLCEKDVKKKLEFGSPKGRSGSLLQVEETEREEGLGAGRWGQLPTQLDQNLLNSENLNNNSKRSCPNGMEDDAIFGILNKVKPSYKSCADCMYPTASGAPEASRERCEDPNAPAICTQPAFLPHITSSPVAHLASRSRVPEKPASGPTEPPPFLPPAGSRRADTSGPGAGAALEPPASLLEPSRETPKVLPKSLLLKNSHCDKNPPSTEVVIKEESSPKKDMKPAKDLRLLFSNESEKPTTNSYLMQHQESIIQLQKAGLVRKHTKELERLKSVPADPAPPSRDGPASRLEASIPEESQDPAALHELGPLVMPSQAGSDEKSEAAPASLEGGSLKSPPPFFYRLDHTSSFSKDFLKTICYTPTSSSMSSNLTRSSSSDSIHSVRGKPGLVKQRTQEIETRLRLAGLTVSSPLKRSHSLAKLGSLTFSTEDLSSEADPSTVADSQDTTLSESSFLHEPQGTPRDPAATSKPSGKPAPENLKSPSWMSKS
# Variants of: B1
# Settings: with cof1_human CFL1, P23528
# Chain of cof1_human CFL1, P23528 (P23528 whole entry): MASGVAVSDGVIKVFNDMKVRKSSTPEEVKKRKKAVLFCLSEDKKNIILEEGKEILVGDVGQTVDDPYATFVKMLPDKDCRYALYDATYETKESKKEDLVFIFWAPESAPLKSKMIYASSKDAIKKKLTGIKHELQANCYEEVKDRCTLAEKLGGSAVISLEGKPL
row,Variant,effect of a mutation on the interaction
1,S402E,disrupting interaction

# Variants of: B1
# Settings: with cof1_human CFL1, P23528
# Remark: another data set of the same source
row,Variant,effect of a mutation on the interaction
1,S402D,disrupting interaction
